Measurements published in paper doi:10.1101/431494, “Conservation of the structural and functional architecture of encapsulated ferritins in bacteria and archaea” (bioRxiv, 2018).
Where “and” joins values, the source holds several entries; their conditions need not be identical. Equal values may be shown once.

B1: Rhodospirillum rubrum encapsulated ferritin, hexahistidine-tagged variant (natural protein, UniProt Q2RVS1 1-140, looked up)
chain: MAQSSNSTHEPLEVLKEETVNRHRAIVSVMEELEAVDWYDQRVDASTDPELTAILAHNRDEEKEHAAMTLEWLRRNDAKWAEHLRTYLFTEGPITAIEAADTAGEGSGGDAAKGATAQGDGSLGIGSLKGEAALARPPRL
B2: Rhodospirillum rubrum encapsulated ferritin, Strep-tagged variant (natural protein, UniProt Q2RVS1 1-140, looked up)
chain: B1 chain
notes: source: recombinant, purified by Strep-Trap column HP
B3: Pyrococcus furiosus encapsulated ferritin domain, residues 1-99, C-terminal StrepII-tagged variant (domain or fragment, UniProt Q8U1L4 1-99, looked up)
chain: MLSINPTLINRDKPYTKEELMEILRLAIIAELDAINLYEQMARYSEDENVRKILLDVAREEKAHVGEFMALLLNLDPEQVTELKGGFEEVKELTGIEAH
notes: EncFtn domain (residues 1-99) of the single contiguous EncFtn-encapsulin polypeptide of Pyrococcus furiosus; locus tag printed as Pfc_01575, Pfc_05157 and Pfc_05175; source: E. coli BL21(DE3), purified (Strep-Trap HP); not shown: StrepII, C-terminal, kept
B4: Pyrococcus furiosus encapsulated ferritin domain, residues 1-99, C-terminal hexahistidine tagged variant (domain or fragment, UniProt Q8U1L4 1-99, looked up)
chain: B3 chain
notes: EncFtn domain (residues 1-99) of the single contiguous EncFtn-encapsulin polypeptide of Pyrococcus furiosus; locus tag printed as Pfc_01575, Pfc_05157 and Pfc_05175; source: E. coli BL21(DE3), purified (HisTrap FF, S200 size-exclusion chromatography); not shown: His6, C-terminal, kept
B5: Pyrococcus furiosus encapsulated ferritin domain as crystallised (PDB 5N5E) (domain or fragment, UniProt Q8U1L4 1-99, looked up)
chain: B3 chain
notes: EncFtn domain (residues 1-99) of the single contiguous EncFtn-encapsulin polypeptide of Pyrococcus furiosus; electron density visible for residues 2-98 in each chain; source: E. coli BL21(DE3), purified; copies: 10

Experiments:
[1] = biological target: the molecule itself; experiment: native MS; nano-ESI, 100 mM ammonium acetate pH 8.0, ~5 uM (oligomer concentration)
[2] = biological target: the molecule itself; experiment: SEC; analytical size-exclusion chromatography, Superdex 200 16/60, 50 mM Tris-HCl pH 8.0, 150 mM NaCl, calibrated with standards of known molecular weight
[3] = biological target: the molecule itself; experiment: SDS-PAGE (resistance of oligomers to SDS and heat denaturation); SDS-PAGE of the size-exclusion peak fractions
[4] = biological target: the molecule itself; experiment: crystal structure; sitting drop vapour diffusion; Hoch_EncFtn in 0.2 M NaCl, 0.1 M Bis-Tris pH 5.5, 20 % PEG 3350; Pfc_EncFtn in 0.2 M LiSO4, 20 % PEG 3350; molecular replacement with PDB 5DA5

Protein | stoichiometry N [1] | stoichiometry N [2] | stoichiometry N [3] | stoichiometry N [4]
B1 | 10 |  |  | 
B2 |  | 10 |  | 
B3 |  | 10 and ~20 | 2 | 
B4 | 10 | ~10 |  | 
B5 |  |  |  | 10
